Experimental data taken from US20150246959A1 (US Dept. of Health and Human Services, published 2015).

Assays:
Test in all cases: cell-based or functional assay
[1] = molecular target: MAGE-A3: 243-256 peptide presented by HLA-DP*0401 on 293-CIITA cells (human, UniProt P20036 29-260)
[2] = molecular target: MAGE-A3: 243-255 peptide presented by HLA-DP*0401 on 293-CIITA cells (human, UniProt P20036 29-260)
[3] = molecular target: MAGE-A3: 243-254 peptide presented by HLA-DP*0401 on 293-CIITA cells (human, UniProt P20036 29-260)
[4] = molecular target: MAGE-A3: 243-253 peptide presented by HLA-DP*0401 on 293-CIITA cells (human, UniProt P20036 29-260)
[5] = molecular target: MAGE-A3: 245-258 peptide presented by HLA-DP*0401 on 293-CIITA cells (human, UniProt P20036 29-260)
[6] = molecular target: MAGE-A3: 246-258 peptide presented by HLA-DP*0401 on 293-CIITA cells (human, UniProt P20036 29-260)
[7] = molecular target: MAGE-A3: 247-258 peptide presented by HLA-DP*0401 on 293-CIITA cells (human, UniProt P20036 29-260)
[8] = molecular target: MAGE-A3: 248-258 peptide presented by HLA-DP*0401 on 293-CIITA cells (human, UniProt P20036 29-260)
[9] = molecular target: MAGE-A3: 249-258 peptide presented by HLA-DP*0401 on 293-CIITA cells (human, UniProt P20036 29-260)
[10] = molecular target: MAGE-A6: 248-258 peptide presented by HLA-DP*0401 on 293-CIITA cells (human, UniProt P20036 29-260)
[11] = molecular target: MAGE-A2/A12: 248-258 peptide presented by HLA-DP*0401 on 293-CIITA cells (human, UniProt P20036 29-260)
[12] = molecular target: MAGE-A4/A9: 249-259 peptide presented by HLA-DP*0401 on 293-CIITA cells (human, UniProt P20036 29-260)
[13] = molecular target: MAGE-A8: 251-261 peptide presented by HLA-DP*0401 on 293-CIITA cells (human, UniProt P20036 29-260)
[14] = molecular target: MAGE-A1/B4: 241-251 peptide presented by HLA-DP*0401 on 293-CIITA cells (human, UniProt P20036 29-260)
[15] = molecular target: MAGE-B2: 250-260 peptide presented by HLA-DP*0401 on 293-CIITA cells (human, UniProt P20036 29-260)
[16] = molecular target: MAGE-B10: 250-260 peptide presented by HLA-DP*0401 on 293-CIITA cells (human, UniProt P20036 29-260)
[17] = molecular target: MAGE-B16: 252-262 peptide presented by HLA-DP*0401 on 293-CIITA cells (human, UniProt P20036 29-260)
[18] = molecular target: MAGE-C1: 113-123 peptide presented by HLA-DP*0401 on 293-CIITA cells (human, UniProt P20036 29-260)
[19] = molecular target: MAGE-D4: 300-315 peptide presented by HLA-DP*0401 on 293-CIITA cells (human, UniProt P20036 29-260)
[20] = molecular target: MAGE-D2: 413-428 peptide presented by HLA-DP*0401 on 293-CIITA cells (human, UniProt P20036 29-260)
[21] = molecular target: MAGE-L2: 582-597 peptide presented by HLA-DP*0401 on 293-CIITA cells (human, UniProt P20036 29-260)
[22] = molecular target: MAGE-G1: 220-235 peptide presented by HLA-DP*0401 on 293-CIITA cells (human, UniProt P20036 29-260)
[23] = molecular target: Necdin: 237-247 peptide presented by HLA-DP*0401 on 293-CIITA cells (human, UniProt P20036 29-260)
[24] = molecular target: MAGE-A3: 243-258 peptide presented by HLA-DP*0401 on 293-CIITA cells (human, UniProt P20036 29-260)

B1: 6F9mC TCR (TCR)
TCR alpha: QTVTQSQPEMSVQEAETVTLSCTYDTSESDYYLFWYKQPPSRQMILVIRQEAYKQQNATENRFSVNFQKAAKSFSLKISDSQLGDAAMYFCALRSSGTYKYIFGTGTRLKVLANIQNPEPAVYQLKDPRSQDSTLCLFTDFDSQINVPKTMESGTFITDKTVLDMKAMDSKSNGAIAWSNQTSFTCQDIFKETNATYPSSDVPCDATLTEKSFETDMNLNFQNLSVMGLRILLLKVAGFNLLMTLRLWSS
TCR beta: GAGVSQSPSNKVTEKGKDVELRCDPISGHTALYWYRQSLGQGLEFLIYFQGNSAPDKSGLPSDRFSAERTGGSVSTLTIQRTQQEDSAVYLCASIRTGPFFSGNTIYFGEGSWLTVVEDLRNVTPPKVSLFEPSKAEIANKQKATLVCLARGFFPDHVELSWWVNGKEVHSGVSTDPQAYKESNYSYCLSSRLRVSATFWHNPRNHFRCQVQFHGLSEEDKWPEGSPKPVTQNISAEAWGRADCGITSASYHQGVLSATILYEILLGKATLYAVLVSGLVLMAMVKRKNS
- IFN-g (pg/ml); CD4+ T cells of PBMC-1; 293-CIITA pulsed with peptide [1]: 1820 pg/mL
- IFN-g (pg/ml); CD4+ T cells of PBMC-2; 293-CIITA pulsed with peptide [1]: 2490 pg/mL
- IFN-g (pg/ml); CD4+ T cells of PBMC-1; 293-CIITA pulsed with peptide [2]: 137 pg/mL
- IFN-g (pg/ml); CD4+ T cells of PBMC-2; 293-CIITA pulsed with peptide [2]: 117 pg/mL
- IFN-g (pg/ml); CD4+ T cells of PBMC-1; 293-CIITA pulsed with peptide [3]: 0 pg/mL
- IFN-g (pg/ml); CD4+ T cells of PBMC-2; 293-CIITA pulsed with peptide [3]: 39 pg/mL
- IFN-g (pg/ml); CD4+ T cells of PBMC-1; 293-CIITA pulsed with peptide [4]: 40 pg/mL
- IFN-g (pg/ml); CD4+ T cells of PBMC-2; 293-CIITA pulsed with peptide [4]: 45 pg/mL
- IFN-g (pg/ml); CD4+ T cells of PBMC-1; 293-CIITA pulsed with peptide [5]: 15000 pg/mL
- IFN-g (pg/ml); CD4+ T cells of PBMC-2; 293-CIITA pulsed with peptide [5]: 17800 pg/mL
- IFN-g (pg/ml); CD4+ T cells of PBMC-1; 293-CIITA pulsed with peptide [6]: 12700 pg/mL
- IFN-g (pg/ml); CD4+ T cells of PBMC-2; 293-CIITA pulsed with peptide [6]: 16200 pg/mL
- IFN-g (pg/ml); CD4+ T cells of PBMC-1; 293-CIITA pulsed with peptide [7]: 10600 pg/mL
- IFN-g (pg/ml); CD4+ T cells of PBMC-2; 293-CIITA pulsed with peptide [7]: 13300 pg/mL
- IFN-g (pg/ml); CD4+ T cells of PBMC-1; 293-CIITA pulsed with peptide [8]: 9000 pg/mL
- IFN-g (pg/ml); CD4+ T cells of PBMC-2; 293-CIITA pulsed with peptide [8]: 8700 pg/mL
- IFN-g (pg/ml); CD4+ T cells of PBMC-1; 293-CIITA pulsed with peptide [9]: 1640 pg/mL
- IFN-g (pg/ml); CD4+ T cells of PBMC-2; 293-CIITA pulsed with peptide [9]: 2030 pg/mL
- IFN-g (pg/ml); CD4+ T cells of PBMC-1; 293-CIITA pulsed with peptide [10]: 11800 pg/mL
- IFN-g (pg/ml); CD4+ T cells of PBMC-2; 293-CIITA pulsed with peptide [10]: 8370 pg/mL
- IFN-g (pg/ml); CD4+ T cells of PBMC-1; 293-CIITA pulsed with peptide [11]: 66 pg/mL
- IFN-g (pg/ml); CD4+ T cells of PBMC-2; 293-CIITA pulsed with peptide [11]: 56 pg/mL
- IFN-g (pg/ml); CD4+ T cells of PBMC-1; 293-CIITA pulsed with peptide [12]: 23 pg/mL
- IFN-g (pg/ml); CD4+ T cells of PBMC-2; 293-CIITA pulsed with peptide [12]: 26 pg/mL
- IFN-g (pg/ml); CD4+ T cells of PBMC-1; 293-CIITA pulsed with peptide [13]: 58 pg/mL
- IFN-g (pg/ml); CD4+ T cells of PBMC-2; 293-CIITA pulsed with peptide [13]: 41 pg/mL
- IFN-g (pg/ml); CD4+ T cells of PBMC-1; 293-CIITA pulsed with peptide [14]: 126 pg/mL
- IFN-g (pg/ml); CD4+ T cells of PBMC-2; 293-CIITA pulsed with peptide [14]: 84 pg/mL
- IFN-g (pg/ml); CD4+ T cells of PBMC-1; 293-CIITA pulsed with peptide [15]: 0 pg/mL
- IFN-g (pg/ml); CD4+ T cells of PBMC-2; 293-CIITA pulsed with peptide [15]: 20 pg/mL
- IFN-g (pg/ml); CD4+ T cells of PBMC-1; 293-CIITA pulsed with peptide [16]: 18 pg/mL
- IFN-g (pg/ml); CD4+ T cells of PBMC-2; 293-CIITA pulsed with peptide [16]: 34 pg/mL
- IFN-g (pg/ml); CD4+ T cells of PBMC-1; 293-CIITA pulsed with peptide [17]: 27 pg/mL
- IFN-g (pg/ml); CD4+ T cells of PBMC-2; 293-CIITA pulsed with peptide [17]: 28 pg/mL
- IFN-g (pg/ml); CD4+ T cells of PBMC-1; 293-CIITA pulsed with peptide [18]: 0 pg/mL
- IFN-g (pg/ml); CD4+ T cells of PBMC-2; 293-CIITA pulsed with peptide [18]: 27 pg/mL
- IFN-g (pg/ml); CD4+ T cells of PBMC-1; 293-CIITA pulsed with peptide [19]: 234 pg/mL
- IFN-g (pg/ml); CD4+ T cells of PBMC-2; 293-CIITA pulsed with peptide [19]: 268 pg/mL
- IFN-g (pg/ml); CD4+ T cells of PBMC-1; 293-CIITA pulsed with peptide [20]: 43 pg/mL
- IFN-g (pg/ml); CD4+ T cells of PBMC-2; 293-CIITA pulsed with peptide [20]: 223 pg/mL
- IFN-g (pg/ml); CD4+ T cells of PBMC-1; 293-CIITA pulsed with peptide [21]: 56 pg/mL
- IFN-g (pg/ml); CD4+ T cells of PBMC-2; 293-CIITA pulsed with peptide [21]: 107 pg/mL
- IFN-g (pg/ml); CD4+ T cells of PBMC-1; 293-CIITA pulsed with peptide [22]: 29 pg/mL
- IFN-g (pg/ml); CD4+ T cells of PBMC-2; 293-CIITA pulsed with peptide [22]: 33 pg/mL
- IFN-g (pg/ml); CD4+ T cells of PBMC-1; 293-CIITA pulsed with peptide [23]: 22 pg/mL
- IFN-g (pg/ml); CD4+ T cells of PBMC-2; 293-CIITA pulsed with peptide [23]: 32 pg/mL
- IFN-g (pg/ml); CD4+ T cells of PBMC-1; 293-CIITA pulsed with peptide [24]: 15200 pg/mL
- IFN-g (pg/ml); CD4+ T cells of PBMC-2; 293-CIITA pulsed with peptide [24]: 17500 pg/mL
